Measurements as given in patent US20230250154A1 (CYTONICS, published 2023).

T1: ADAMTS4 (human, UniProt O75173 213-685, limits assumed)
T1 sequence (looked up): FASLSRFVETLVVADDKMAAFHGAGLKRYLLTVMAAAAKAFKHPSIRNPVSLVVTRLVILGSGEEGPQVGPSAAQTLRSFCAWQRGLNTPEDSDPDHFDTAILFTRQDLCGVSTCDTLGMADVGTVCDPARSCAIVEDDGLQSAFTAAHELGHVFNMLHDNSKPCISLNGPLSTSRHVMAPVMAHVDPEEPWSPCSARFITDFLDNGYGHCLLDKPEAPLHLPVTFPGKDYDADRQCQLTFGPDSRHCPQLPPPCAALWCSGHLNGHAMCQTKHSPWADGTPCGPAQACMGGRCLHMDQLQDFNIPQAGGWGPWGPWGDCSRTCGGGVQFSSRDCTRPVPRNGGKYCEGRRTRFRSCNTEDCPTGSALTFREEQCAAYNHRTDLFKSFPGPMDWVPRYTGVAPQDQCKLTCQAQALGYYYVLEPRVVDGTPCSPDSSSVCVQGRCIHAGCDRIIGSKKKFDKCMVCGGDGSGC

T2: ADAMTS5 (human, UniProt Q9UNA0 262-622, limits assumed)
T2 sequence (looked up): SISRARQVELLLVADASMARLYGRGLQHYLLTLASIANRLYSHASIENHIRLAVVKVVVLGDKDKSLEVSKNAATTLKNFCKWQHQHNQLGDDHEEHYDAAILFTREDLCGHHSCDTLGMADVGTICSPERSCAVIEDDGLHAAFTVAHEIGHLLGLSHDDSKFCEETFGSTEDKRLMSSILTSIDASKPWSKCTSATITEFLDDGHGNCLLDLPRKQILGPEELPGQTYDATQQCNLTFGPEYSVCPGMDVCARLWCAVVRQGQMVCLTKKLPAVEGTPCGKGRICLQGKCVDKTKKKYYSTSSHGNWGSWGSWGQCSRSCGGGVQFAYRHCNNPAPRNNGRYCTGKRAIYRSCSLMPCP


How the values were obtained:
Assay in all cases: cell-based or functional assay
ADAMTS4 = target: T1, ADAMTS4
ADAMTS5 = target: T2, ADAMTS5
MMP13 = MMP13 (human, UniProt P45452 104-471, limits assumed)

Protease Inhibition (% of WT) (ADAMTS4) | Protease Inhibition (% of WT) (ADAMTS5) | Protease Inhibition (% of WT) (MMP13) | Binder
168 % of WT | 97 % of WT | 124 % of WT | Variant A2M, bait region SEQ ID NO 101 (other) SVSGKPQYMVLVPSLLHTETTEKGCVLLSYLNETVTVSASLESVRGNRSLFTDLEAENDVLHCVAFAVPKSSSNEEVMFLTVQVKGPTQEFKKRTTVMVKNEDSLVFVQTDKSIYKPGQTVKFRVVSMDENFHPLNELIPLVYIQDPKGNRIAQWQSFQLEGGLKQFSFPLSSEPFQGSYKVVVQKKSGGRTEHPFTVEEFVLPKFEVQVTVPKIITILEEEMNVSVCGLYTYGKPVPGHVTVSICRKYSDASDCHGEDSQAFCEKFSGQLNSHGCFYQQVKTKVFQLKRKEYEMKLHTEAQIQEEGTVVELTGRQSSEITRTITKLSFVKVDSHFRQGIPFFGQVRLVDGKGVPIPNKVIFIRGNEANYYSNATTDEHGLVQFSINTTNVMGTSLTVRVNYKDRSPCYGYQWVSEEHEEAHHTAYLVFSPSKSFVHLEPMSHELPCGHTQTVQAHYILNGGTLLGLKKLSFYYLIMAKGGIVRTGTHGLLVKQEDMKGHFSISIPVKSDIAPVARLLIYAVLPTGDVIGDSAKYDVENCLANKVDLSFSPSQSLPASHAHLRVTAAPQSVCALRAVDQSVLLMKPDAELSASSVYNLLPEKDLTGFPGPLNDQDDEDCINRHNVYINGITYTPVSSTNEKDMYSFLEDMGLKAFTNSKIRKPKMCPQLEQYEMHGPEGLRVGEEEGGGFYESDVMGRGHARLVHVEEPHTKLRKYFPETWIWDLVVVNSAGVAEVGVTVPDTITEWKAGAFCLSEDAGLGISSTASLRAFQPFFVELTMPYSVIRGEAFTLKATVLNYLPKCIRVSVQLEASPAFLAVPVEKEQAPHCICANGRQTVSWAVTPKSLGNVNFTVSAEALESQELCGTEVPSVPEHGRKDTVIKPLLVEPEGLEKETTFNSLLCPSGGEVSEELSLKLPPNVVEESARASVSVLGDILGSAMQNTQNLLQMPYGCGEQNMVLFAPNIYVLDYLNETQQLTPEIKSKAIGYLNTGYQRQLNYKHYDGSYSTFGERYGRNQGNTWLTAFVLKTFAQARAYIFIDEAHITQALIWLSQRQKDNGCFRSSGSLLNNAIKGGVEDEVTLSAYITIALLEIPLTVTHPVVRNALFCLESAWKTAQEGDHGSHVYTKALLAYAFALAGNQDKRKEVLKSLNEEAVKKDNSVHWERPQKPKAPVGHFYEPQAPSAEVEMTSYVLLAYLTAQPAPTSEDLTSATNIVKWITKQQNAQGGFSSTQDTVVALHALSKYGAATFTRTGKAAQVTIQSSGTFSSKFQVDNNNRLLLQQVSLPELPGEYSMKVTGEGCVYLQTSLKYNILPEKEEFPFALGVQTLPQTCDEPKAHTSFQISLSVSYTGSRSASNMAIVDVKMVSGFIPLKPTVKMLERSNHVSRTEVSSNHVLIYLDKVSNQTLSLFFTVLQDVPVRDLKPAIVKVYDYYETDEFAIAEYNAPCSKDLGNADYKDDDDKGASHHHHHH
168 % of WT | 309 % of WT | 52 % of WT | Variant A2M, bait region SEQ ID NO 103 (other) SVSGKPQYMVLVPSLLHTETTEKGCVLLSYLNETVTVSASLESVRGNRSLFTDLEAENDVLHCVAFAVPKSSSNEEVMFLTVQVKGPTQEFKKRTTVMVKNEDSLVFVQTDKSIYKPGQTVKFRVVSMDENFHPLNELIPLVYIQDPKGNRIAQWQSFQLEGGLKQFSFPLSSEPFQGSYKVVVQKKSGGRTEHPFTVEEFVLPKFEVQVTVPKIITILEEEMNVSVCGLYTYGKPVPGHVTVSICRKYSDASDCHGEDSQAFCEKFSGQLNSHGCFYQQVKTKVFQLKRKEYEMKLHTEAQIQEEGTVVELTGRQSSEITRTITKLSFVKVDSHFRQGIPFFGQVRLVDGKGVPIPNKVIFIRGNEANYYSNATTDEHGLVQFSINTTNVMGTSLTVRVNYKDRSPCYGYQWVSEEHEEAHHTAYLVFSPSKSFVHLEPMSHELPCGHTQTVQAHYILNGGTLLGLKKLSFYYLIMAKGGIVRTGTHGLLVKQEDMKGHFSISIPVKSDIAPVARLLIYAVLPTGDVIGDSAKYDVENCLANKVDLSFSPSQSLPASHAHLRVTAAPQSVCALRAVDQSVLLMKPDAELSASSVYNLLPEKDLTGFPGPLNDQDDEDCINRHNVYINGITYTPVSSTNEKDMYSFLEDMGLKAFTNSKIRKPKMCPQLEQYEMHGPEGLRVGGARGLEGGFAGLPNGGEEGVEEGKLRKYFPETWIWDLVVVNSAGVAEVGVTVPDTITEWKAGAFCLSEDAGLGISSTASLRAFQPFFVELTMPYSVIRGEAFTLKATVLNYLPKCIRVSVQLEASPAFLAVPVEKEQAPHCICANGRQTVSWAVTPKSLGNVNFTVSAEALESQELCGTEVPSVPEHGRKDTVIKPLLVEPEGLEKETTFNSLLCPSGGEVSEELSLKLPPNVVEESARASVSVLGDILGSAMQNTQNLLQMPYGCGEQNMVLFAPNIYVLDYLNETQQLTPEIKSKAIGYLNTGYQRQLNYKHYDGSYSTFGERYGRNQGNTWLTAFVLKTFAQARAYIFIDEAHITQALIWLSQRQKDNGCFRSSGSLLNNAIKGGVEDEVTLSAYITIALLEIPLTVTHPVVRNALFCLESAWKTAQEGDHGSHVYTKALLAYAFALAGNQDKRKEVLKSLNEEAVKKDNSVHWERPQKPKAPVGHFYEPQAPSAEVEMTSYVLLAYLTAQPAPTSEDLTSATNIVKWITKQQNAQGGFSSTQDTVVALHALSKYGAATFTRTGKAAQVTIQSSGTFSSKFQVDNNNRLLLQQVSLPELPGEYSMKVTGEGCVYLQTSLKYNILPEKEEFPFALGVQTLPQTCDEPKAHTSFQISLSVSYTGSRSASNMAIVDVKMVSGFIPLKPTVKMLERSNHVSRTEVSSNHVLIYLDKVSNQTLSLFFTVLQDVPVRDLKPAIVKVYDYYETDEFAIAEYNAPCSKDLGNADYKDDDDKGASHHHHHH
187 % of WT | 354 % of WT | 127 % of WT | Variant A2M, bait region SEQ ID NO 102 (other) SVSGKPQYMVLVPSLLHTETTEKGCVLLSYLNETVTVSASLESVRGNRSLFTDLEAENDVLHCVAFAVPKSSSNEEVMFLTVQVKGPTQEFKKRTTVMVKNEDSLVFVQTDKSIYKPGQTVKFRVVSMDENFHPLNELIPLVYIQDPKGNRIAQWQSFQLEGGLKQFSFPLSSEPFQGSYKVVVQKKSGGRTEHPFTVEEFVLPKFEVQVTVPKIITILEEEMNVSVCGLYTYGKPVPGHVTVSICRKYSDASDCHGEDSQAFCEKFSGQLNSHGCFYQQVKTKVFQLKRKEYEMKLHTEAQIQEEGTVVELTGRQSSEITRTITKLSFVKVDSHFRQGIPFFGQVRLVDGKGVPIPNKVIFIRGNEANYYSNATTDEHGLVQFSINTTNVMGTSLTVRVNYKDRSPCYGYQWVSEEHEEAHHTAYLVFSPSKSFVHLEPMSHELPCGHTQTVQAHYILNGGTLLGLKKLSFYYLIMAKGGIVRTGTHGLLVKQEDMKGHFSISIPVKSDIAPVARLLIYAVLPTGDVIGDSAKYDVENCLANKVDLSFSPSQSLPASHAHLRVTAAPQSVCALRAVDQSVLLMKPDAELSASSVYNLLPEKDLTGFPGPLNDQDDEDCINRHNVYINGITYTPVSSTNEKDMYSFLEDMGLKAFTNSKIRKPKMCPQLEQYEMHGPEGLRVGGYPGSSRGFYESDVMGRGHARLVHVEEPHTKLLRKYFPETWIWDLVVVNSAGVAEVGVTVPDTITEWKAGAFCLSEDAGLGISSTASLRAFQPFFVELTMPYSVIRGEAFTLKATVLNYLPKCIRVSVQLEASPAFLAVPVEKEQAPHCICANGRQTVSWAVTPKSLGNVNFTVSAEALESQELCGTEVPSVPEHGRKDTVIKPLLVEPEGLEKETTFNSLLCPSGGEVSEELSLKLPPNVVEESARASVSVLGDILGSAMQNTQNLLQMPYGCGEQNMVLFAPNIYVLDYLNETQQLTPEIKSKAIGYLNTGYQRQLNYKHYDGSYSTFGERYGRNQGNTWLTAFVLKTFAQARAYIFIDEAHITQALIWLSQRQKDNGCFRSSGSLLNNAIKGGVEDEVTLSAYITIALLEIPLTVTHPVVRNALFCLESAWKTAQEGDHGSHVYTKALLAYAFALAGNQDKRKEVLKSLNEEAVKKDNSVHWERPQKPKAPVGHFYEPQAPSAEVEMTSYVLLAYLTAQPAPTSEDLTSATNIVKWITKQQNAQGGFSSTQDTVVALHALSKYGAATFTRTGKAAQVTIQSSGTFSSKFQVDNNNRLLLQQVSLPELPGEYSMKVTGEGCVYLQTSLKYNILPEKEEFPFALGVQTLPQTCDEPKAHTSFQISLSVSYTGSRSASNMAIVDVKMVSGFIPLKPTVKMLERSNHVSRTEVSSNHVLIYLDKVSNQTLSLFFTVLQDVPVRDLKPAIVKVYDYYETDEFAIAEYNAPCSKDLGNADYKDDDDKGASHHHHHH
